From PMC8262862 (2021) come the findings set out here.

As a reminder, the Kd is the equilibrium constant for the complex coming apart. High values mean a looser complex, low ones a tighter complex.

Some results are limits rather than exact numbers.

Experiment in all cases: ELISA
(An ELISA detects its analyte on a solid surface through an enzyme-linked reagent.)

The target in assay [1] is H6 HA.
Assay [2] has as its target B-Phuket HA.
Assay [3] concerns the target H8 HA.
Assay [4] deals with H4 HA.
Assay [5] has as its target H2 HA.
Assay [6] has as its target H7 HA.
The target in assay [7] is H10 HA.
Assay [8] deals with H1 HA.
In assay [9] the target is H14 HA.
The target of assay [10] is H5 HA.
Assay [11] concerns the target H13 HA.
Assay [12] deals with H3 HA.
In assay [13] the target is H9 HA.

B1: S1V2-51 IgG (antibody, V domains shown)
VH: QVQLVESGGGVVQPGRSLRLSCVASGFTFRDSVMHWVRQAPGKGLEWVAVTSFDGGESYSADSVKGRFTISRDNSKSTLSLQMNILRPEDTGVYYCARDRGGLDVWGQGTTVTVSG
VL: DIVMTQSPESLAVSLGERATINCKSSQSVSFGSSDKNYLGWYQQKPGQPPKLLINWASTRESGVSDRFRGTGSGTDFTLTISSLQAEDAAVYYCHQYYTPPYSFGQGTKLEIK
As to B1, the Kd is 84 nM in assay [1]; above 100 nM in [2]; 0.41 nM in assay [3]; 0.21 nM in assay [4]; above 100 nM in [5]; 0.21 nM in assay [6]. In addition, the Kd was 0.42 nM in assay [7]; above 100 nM in [8]; above 100 nM in assay [9]; above 100 nM in assay [10]; above 100 nM in assay [11]; 0.26 nM in assay [12]. In assay [13], this molecule registered a Kd of 0.21 nM.
